This assay has as its target HSV-1 major capsid protein VP5 (gene product of UL19) (herpes simplex virus type 1 (HSV-1)). The experiment in a line: co-immunoprecipitation with VP5 antisera of in vitro translated radiolabeled protein mixed with BAC-VP5 Sf9 extract, SDS-PAGE.

HSV-1 UL15 gene product (75 kD protein) yielded a fold amount co-immunoprecipitated with VP5 against the negative control proteins (HPV-6b E1, HPV-16 E1, HPV-16 E2) of 10 fold.

(Values after EP0860700A2.)
